A short description of the data set: soluble on expression in E. coli; label from the status in PepcDB or PDB records.
For “MSAPRLPVTVLTGFLGAGKTTLLSKLLENNKQRRLAILVNEFGEVSIDGGLLRDGENQGVEIHDLANGLVAYDDDADFLPTMLALWQRRQQIDHVLIETSGLALPSAVMAQLQSEALAPYFVLDATLAVVDTPLLLAGHFAPAGDGGKTDAVAALFDQQLGHADIVVLNKIDALSADQLLAAEEAVRKQAPSIRFIELAYEAKLDTRLTLGLHLHEASPAAHRHYGPVASMPGLAMRPLANQTLLDGHSHGGQAAHSHGLATHKHFHEQDPGWQSFMIRSKEPQCADKLAAALQAIAREEPLLRIKGFAACADSPGRLLAQGVRSRIELSRDDTLAAPRQAQLVFIGYHPSRPRVVALLRDITGAHWSLEHHHHHH”, the “soluble on expression in E. coli” value is reported as “not soluble”. For “MSARILVVDDIEANVRLLEAKLTAEYYEVSTAMDGPTALAMAARDLPDIILLDVMMPGMDGFTVCRKLKDDPTTRHIPVVLITALDGRGDRIQGLESGASDFLTKPIDDVMLFARVRSLTRFKLVIDELRQREASGRRMGVIAGAAARLDGLGGRVLIVDDNERQAQRVAAELGVEHRPVIESDPEKAKISAGGPVDLVIVNAAAKNFDGLRFTAALRSEERTRQLPVLAMVDPDDRGRMVKALEIGVNDILSRPIDPQELSARVKTQIQRKRYTDYLRNNLDHSLELAVTDQLTGLHNRRYMTGQLDSLVKRATLGGDPVSALLIDIDFFKKINDTFGHDIGDEVLREFALRLASNVRAIDLPCRYGGEEFVVIMPDTALADALRIAERIRMHVSGSPFTVAHGREMLNVTISIGVSATAGEGDTPEALLKRADEGVYQAKASGRNAVVGKAAHHHHH”, the “soluble on expression in E. coli” value was “soluble”.

Consider “MSARSLYQDTAVAALRDDLALALCAAAHHGLGEGVCNHFSVALPGQAGAFLLNPRGLMWSEVRAEDIVLVDAAGNKLAGRHEVEPTAMFIHAAIHQVAGKACVLHTHMPYATALTLTEARMLDTTLSQNAMRFHGRVAADRRYNGLALDAAEGERIARAMDGADIAFLGNHGVVVCGERIDYAFDDLYYLERACCAQVLAESSGRPLVPLDAALAASVAGQARSERLQSTLFFEALRRALGLEHHHHHH”, for which the “soluble on expression in E. coli” value was “not soluble”. In the case of “MSASDGDNTEQTGRRRSFGNLFGSTRVPFSSLSDIYANQSTFAKDQGVQSEVDVADAWSQHHAPTRDQYVQSEIITAVETSSQYEVQTKDKEVEAICSTANRTTQTCHATNIAGTNSESCLIEKLANSLLEHLQARRPIKARTAFPIYLQQPEQLQLLPPPDQQSAPVPPSHPLQNSEARQEDLEQTEMPQASQQIGINETSLNDADSQSFFHSRLHQTEQREETNSNSMQSIHSQVNPPASQETMESHFPEMINSRKSDHQLCFSFKKVTSERCSSFPTRHDGSSHFARSSSGLLGSMSSQQQRSQFPVPQEEGNQAEDMRGAQQPHNARNLFGGVGGMFPSMPNSSGGQGPDWQNNHFIRPFGQPAAGMMSWHPGMMPSHMNNSAAPSSFFESPFMPPYDVFMQQQMLLHSQYAAWEQQRNHAMMYQNAQNQNSANVNPSFADIPSAAPISQPEVNVNENQIVPEETERLEADLEIENTVDAIIVTDVGSVNQAVSGVNSIARETEEINNQDVRNETPVEDFGSIISAISITENRNESPMPSASETDDTSPHTSRSRYGSSVAISTGMKRARLEPSQSPPGSSRKNSRNETTKKNSKTPSSTIDKEPTSSKRTRKAPARYEAEWNAEQGGDTRRAKRWSKDFYKAPSKK”, the “soluble on expression in E. coli” value is recorded as “not soluble”. With “MSATFSPTAVTDLKDIQDVERLMGRIKEARAAVGEVIFGQEAVVDEVLVTLLAGGHALLIGLPGLAKTKLVQTLGTVVGLRDKRVQFTPDLMPADILGSEVLEEDAAGQRGFRFLPGPVFCQLLMADEINRASPRTQSALLQAMQEHRVSVAGHYHDLPAPFHVLATQNPIEQEGTYPLPEAQLDRFLMQVDVGYPDEAAERRMLAATTGVHQPEARAVMTPAELQAAQALVRRVPVGDSVVDAILSLVRAGRPESSPLPEVRDWVAWGPGPRASQALTLAVRARALLDGRFAPSIEDVIALAHPILRHRMALSFGARADGVTLGRVVDRLIDKIA”, the “soluble on expression in E. coli” value is “soluble”. Then “MSAVLKKNKPFSILLMGTDTGALGRSDVGRTDTLMVATINPTKETAYLTSIPRDTRVTVGSGVNASVQKINAAYTIGGSKTAVKTVENLLDIPIDFYAIVNMGGLEKMVDAVGGVDVTPPLTFHYGAANVTKGKKTHLNGKQALAYSRMRHEDPLGDYGRQKRQRQVLQKMVVKAAGLSSITRYQTILKSLNGNLKTDLTFDDLMQIRAKYGDASHHIKSETLQGQDAMIDGLSYQVPTTSELKKVSNHIRKTLELANTTKFTTDADTDTTGSTAYGSSDNSGYGYLEHHHHHH”, with “soluble”; and “MSAVLNGKKPVSILLLGTDTGALGRNYKGRTDTIILATINPKTKTTTLMSLPRDSEVAVSGFEQDFPTKLNAAYAYGSAGTTIKTVQKWLNVPIDYYALINMGGMKKVVDEIGGVDITPIRTFTYEGYTFTKGQKEHMNGAKALAYSRMRYDDPLGDYGRQQRQRQLITAIIGESASASNLLKQDFLNSLAKQTRTDLTFGNLTSIVTNYRSATKNIVSDHAQGTGKMIDGQSFEVVSQSEKQRVTNVLRKSLNLKAATTGEKFANQNLEHHHHHH”, with “soluble”. Regarding “MSAVPFPLLRLPNSALQKSLKEMRLVEQLSLSLLSENTMQLVRRFNRGRYFATITVVDSICVHLWTARCGQLFFKIKPDQSIRAVNILKSDSIATKFTMPKIPGFTVKKWLEHISHVFFSDTGATLRWMSSVRNIEETCEILKEVKIARLAINPSTVQDCQMRRLLPAIKELIVSDSTVHGSIVHWNLEKLSVFSTTMTLDDLLLSNCSDIAIGRNSLSHKNRNIFMRQWINGSNPRLQYFAMLMGFNGVQQLENTLFENIKYTETTVQGASTYKEFEIEGRDGRTAKIKLNTELTSRYFAMNVIF”, the “soluble on expression in E. coli” value is reported as “not soluble”. Consider “MSCDRKDEEKKETEEKKDDESKKKDEKKEEKSKRKEDEKKEKQNIAGAVYNQMRNTILMEEGSVISGRFEVKGIIGGGGFAQIYKAWDKVRKEDCAIKVEHESQDIRRMKLEITVLLALRGSMGIPEILAQGKWQHEDNKSHYIVMQLVGRNLSDVRRALPHKRITERTLYRAMIQVLKALSLVHGAGFLHRDLKPSNCCIGAIDCTRIYLIDYGLTRQYLDKGGIVRKPRAGVGLRGTVRYMSLDAHARQDLGPKNDLVAFLYTTIECGDGYLPWSHEKTHENIIKLKQAHIGDKLCTKQPVMTKAAEYIESLNYHSIPDYEKLLALMEECNPPDLKESEPYDWQYRHLPNGTPGGTKENVTERMAI”, for which the “soluble on expression in E. coli” value is on record as “soluble”.

Take “MSDAFTDVAKMKKIKEDIRAHEGQLVELTLENGRKREKNKIGRLIEVYSSLFIIEYSDSSDTPGAIDNSYVESYTYSDILTEKTLIRYLD”: the “soluble on expression in E. coli” value is recorded as “not soluble”.

For “MSDDEIGDGARAFNQLIQALSLSIETETAVRTFTEMLVSELDVHQLTEQALALLLQHTGADGGAILIEVDGEIRVAASQGIGSAHTLANNDRVRSALRTERRHRVQLPEDLVVDGMLAQFRPKEVIIDPVRHKEVVLGAVVLASGQGFSAEDRNRLDVFERGLALALHNALLYDRLQTLAALDPLEHHHHHH”, the “soluble on expression in E. coli” value is given as “not soluble”.

As to “MSDEDERHRKKMKRKTCTGDSKSPAKKKQKIKDKSEEKSHAVQKHDAIGGKADSTKTKVKLSGKDKDKGKISKSAHSTEWTENDKKSSSDGGKKQIKRNEKGQLLFKDHPEFTPNMTPKEVLQAGSFGGTYFRPIYSSITKKHYKDVWKELPEDWLDGLNIPEQVASSTYREKVNTYKVKCGGSLEMWESSGWIVPQDPYGWFQWYCRFYQGRRTEDDARQISRWSKCAGVKGRWRNNLITKVVRSGCAYDNVTVSPVVRQTLQHWGYKLTPEDYKQGAKRVKLK”, the “soluble on expression in E. coli” value was “not soluble”. Then “MSDEIARLVADVFELAGLLRRSGEVVAAREGHTQARWQLLSVVSDRALTVPQAARRLGVTRQGVQRVANDLVVCGLAELRHNPDHRTSPLLVLTENGRRVLQAITERAIVVNNRLADAVDPAALQATRDSLRRMIVALKAERP”, with “not soluble”. The entry for “MSDETFMREAIALARANVEAGGRPFGAVLVRDGRVLARGVNQIHETHDPSAHAELQAIRQASQALGSPRLDGCVIYASGHPCPMCLAAMHLCGIQAAWFAYSNEDGEAFGLSTATLYAEMARPPQRQSLPLRALRPAGEEGLYRQWRQRQA” is “not soluble”; for “MSDGIPFAGEPADSHEAIMRATFRALREYGYAGLSIQRIADEADLSKSTFYHHFDGKEDLLLSFQEFILTEFNRIFQIESTGDPEQDIKTFVSLILDDFPDCVETPTKNAVLGSYVEMRAQAVQNPDFREKFTETDELFARQLVQIIEDGIEQGVFADVDPDTVSRFMITILDGVILQSATRNDNPVAEVRDTIDEYIEETLILNT” it is “not soluble”. For “MSDISRGDIRVKGFTDSEMDFQLIRQLGSSSYRAASVGECLNIANTMKNEDPEEWVRQFERLAEWQKKDGLERMVKNHVISGREQLFKASNSFRAAEYYSPPSSEHHRKLGLNSADCFCTAISSMDIHFENHSIPYKNINLPCYFISPANDGEKRDTVMIVSGFDGTLEEEFLMRGLAAVERGYNVIHFAGPGQMDVFRKYPDTYFEPDFEQVVKRIINYFEFRQEINMAKLTLMGISFGGYFATRAASHEPRIKVLIANSPILDLHAYMCSFVKMDPCEMPDSEDFSINDLPSIPNEVMPPQLKAQTEHLIRRFGQPTFKATFHYLREFTVGDSLNHIKIPCLALLGSGEGGEPGKQFAEFCKITNSAQYEFSDFEGAGSHCQVGNVSYSNAVVYDWLDSL”, the “soluble on expression in E. coli” value is “not soluble”. Regarding “MSDLHIPGTQSTPAIQGDWQAGRLSMQGDSYPENSYELFGQVIDWVERFLADGQRPLELDLRLLYLNTSSIKAMMDILDLLEEAHQGGRPVSLRWHYDRRNERVAELAEEFREDCSFPFAIQAHDE”, the “soluble on expression in E. coli” value is “not soluble”. Regarding “MSDPLHVTFVCTGNICRSPMAEKMFAQQLRHRGLGDAVRVTSAGTGNWHVGSCADERAAGVLRAHGYPTDHRAAQVGTEHLAADLLVALDRNHARLLRQLGVEAARVRMLRSFDPRSGTHALDVEDPYYGDHSDFEEVFAVIESALPGLHDWVDERLARNGPS”, the “soluble on expression in E. coli” value is recorded as “soluble”. Consider “MSDPVADFLAREQNLFADFDGAPPAAAAANPDAPEADAPAPALDDDFGDLQIAGDEPPPVVHPTDSGVDLDGLVDDNAAAPAIVVPAVEPMVNGNHSASSGGSKGPSPILSTVPRIEAEKIRLWKAQQEQLLSKKDEAEEKKKIELRANAKKELEEWYKQREKTLQLSHDENLKNEKSNQELFAKQQDGDAQWETVNKLVDQQKSKSGKDLSRLKTLLAGLKHAGK”, for which the “soluble on expression in E. coli” value is listed as “not soluble”. Take “MSDQIIARVSQSLAKEQSLESLVRQLLEMLEMVTDMESTYLTKVDVEARLQHIMFARNSQKMYIPENFTVSWDYSLCKRAIDENCFFSDEVPDRWGDCIAARNLGITTFLSTPIHLPDGSFYGTLCAASSEKRQWSERAEQVLQLFAGLIAQYIQKEALVEQLREANAALIAQSYTDSLTGLPNRRAIFENLTTLFSLARHLNHKIMIAFIDLDNFKLINDRFGHNSGDLFLIQVGERLNTLQQNGEVIGRLGGDEFLVVSLNNENADISSLRERIQQQIRGEYHLGDVDLYYPGASLGIVEVDPETTDADSALHAADIAMYQEKKHKQKTPFVAHPALHS”: the “soluble on expression in E. coli” value is “soluble”. Regarding “MSDSNTSSLPRAAQLEPDAAPAVAVLQQALQWQVIFWSGEATDRDRMRWQSWLAADPAHARAWAQVQRTDEQLQTLASPAAEVLRSADARRCKARRTVLGMAGLLAGAGIMGCGLRQTAQWQMMMADDHTGYGERRNIELADGTQVTLGSATAIDVCYSAQARQLLLRTGEIFIVTAPDSADRPFLVQTTRGSVQALGTRFNVRESGEQIQVAVQDGAVAIRPAGMNPGDVVRLDAGQQTCFDHTKVEAAEALQISATAWTRGLLVAERMRLEDFLVELGRYRSGVLRCDPAVRDLIVSGVYSLDDTDQSLRLLAQALPVQVQTVTRWWTIVGPRPMK”, the “soluble on expression in E. coli” value was “not soluble”.

The record behind these values is the DeepSol protein solubility set.
